Assay results: the DeepSol protein solubility set

Assay: soluble on expression in E. coli; label from the status in PepcDB or PDB records
In the case of “MHFHVNNVVTSSQIDDVLVKICTGPLFDNGTPFITYGCVLHLSSERGIIRTFDEKLCLFELKDLNMDGVVDMTDVLPLGCTLKFFATRQNHHTFTASNVSPICEPAAQLIFLNSTEMNVITPDFTSTGSSNHYSVEKERFAYVRILELFQQQAVLSLPLSSMISELGKFGEDDVSQYIGISDEERGMFIKRRTHLFTVGWNDLVTLQSPDFYQAIVLILSYILCNGGVTSTENVFEFYQTDNVPLSVRQRTGSDMNSFREIIDFHSWAFTLSSHGTYVSAKRNLPHFDYMSFFEGIVCTATPQRHQKSKLLKHPPGLQIPLLNTRAQALGQASMHQQQQEHISNPYQGYQPYLHREDMTNGMKKPTGTLIDGANQKHCFGMQVSSPDRNAFEKPSVFGHTWGDVIAFNKNSANFSRGMQSKRRYNLSSMFRNLKYSGFRSSIDSTSSSDDSQSLDNCSTSGVNNMLIGCGPQMY”, the “soluble on expression in E. coli” value is reported as “not soluble”.
With “MHGKLIGVGVGPGDSELLTLRAVNVLRSVPVICAPRSSSERESIALSIVEDILTERRDGCRILDPVFPMTDDRDELESHWDSAARMVAAELEDGRDVAFITLGDPSIYSTFSYLQQRIEDMGFKTEMVPGVTSFTACAATAGRTLVEGDEILLVVPRVDDRFERVLRDVDACVIMKTSRHGRRAMEVVESDPRGKDVVSVANCSMDDEVVERGFASGGGYLATTLVRFREQS” the “soluble on expression in E. coli” value was “soluble”.
In the case of “MHGKRIALCASRKLDEMTTLIEKQGGTAIIRPAQGTVFSKGSELGEEMRTVIAMRPDWIVFTTGIGFEALLEAADREGMAAQWHRTIKEANVAARGYKTVTALKQIGVTPVAVSEDGTTKGLIAALYGHDFADKNVVVQLYGDTAPALKQFFLEQGALYTELLPYRHIAPDEETLATLYKEIVGREVDAVCFTSAMQVRFFFSFAREKKEIAPLLDAFRTDVVACAVGKVTKEALEEEGVDRVIAPEHERMGAMIVTLARYFGA”, the “soluble on expression in E. coli” value is reported as “not soluble”.
For “MHHHHHHGRIGIPRERLTNETRVAATPKTVEQLLKLGFTVAVESGAGQLASFDDKAFVQAGAEIVEGNSVWQSEIILKVNAPLDDEIALLNPGTTLVSFIWPAQNPELMQKLAERNVTVMAMDSVPRISRAQSLDALSSMANIAGYRAIVEAAHEFGRFFTGQITAAGKVPPAKVMVIGAGVAGLAAIGAANSLGAIVRAFDTRPEVKEQVQSMGAEFLELDFKEEAGSGDGYAKVMSDAFIKAEMELFAAQAKEVDIIVTTALIPGKPAPKLITREMVDSMKAGSVIVDLAAQNGGNCEYTVPGEIFTTENGVKVIGYTDLPGRLPTQSSQLYGTNLVNLLKLLCKEKDGNITVDFDDVVIRGVTVIRAGEITWPAPPIQVSAQPQAAQKAAPEVKTEEK”, the “soluble on expression in E. coli” value was “soluble”.
With “MHHHHHHHHIGGDFAVVKAKKSLERRGFGVKRGDKIYLHPLEVVYLQIKGIESFGELEDVLSWAESRMEDFSTYYFVYEDLRDRGNKVKIQGEFLLTKKPYLPISERKTIRMEEIAEKARNFDELRLAVVDEESEITYFRVYEPDMMGEQKEELPEIAGVLSDEYVITKQTEIFSRYFYGSEKGDLVTLSLIESLYLLDLGKLNLLNADREELVKRAREVERNFDRRYEVYRNLKERGFVVKTGFKFGSEFRVYRKVESVDDLPHSEYLVDIADSREIRLIDLARAVRLAQNVRKRMVFAYGKNYLCFERVKV” the “soluble on expression in E. coli” value was “soluble”.
With “MHHHHHHMKEIATEYSFIKYTELELDDNGSIKQLSIPNKYNVIYAIAINDELVYIGKTKNLRKRINYYRTAINRKDKTSDSTKSALIHSALKEGSKVEFYARQCFNLSMTNELGTMTIATIDLEAPLFIKLFNPPWNIQHKKK” the “soluble on expression in E. coli” value was “soluble”.
In the case of “MHHHHHHSSGVDLGTENLYFQSMAQADIALIGLAVMGQNLILNMNDHGFVVCAFNRTVSKVDDFLANEAKGTKVVGAQSLKEMVSKLKKPRRIILLVKAGQAVDDFIEKLVPLLDTGDIIIDGGNSEYRDTTRRCRDLKAKGILFVGSGVSGGEEGARYGPSLMPGGNKEAWPHIKTIFQGIAAKVGTGEPCCDWVGDEGAGHFVKMVHNGIEYGDMQLICEAYHLMKDVLGMAQDEMAQAFEDWNKTELDSFLIEITANILKFQDTDGKHLLPKIRDSAGQKGTGKWTAISALEYGVPVTLIGEAVFARCLSSLKDERIQASKKLKGPQKFQFDGDKKSFLEDIRKALYASKIISYAQGFMLLRQAATEFGWTLNYGGIALMWRGGCIIRSVFLGKIKDAFDRNPELQNLLLDDFFKSAVENCQDSWRRAVSTGVQAGIPMPCFTTALSFYDGYRHEMLPASLIQAQRDYFGAHTYELLAKPGQFIHTNWTGHGGTVSSSSYNA”, the “soluble on expression in E. coli” value is reported as “soluble”.
With “MHHHHHHSSGVDLGTENLYFQSMEESGATFHTYLNHLIQGLQKEAKEKFKGWVTCSSTDNTDLAFKKVGDGNPLKLWKASVEVEAPPSVVLNRVLRERHLWDEDFVQWKVVETLDRQTEIYQYVLNSMAPHPSRDFVVLRTWKTDLPKGMCTLVSLSVEHEEAQLLGGVRAVVMDSQYLIEPCGSGKSRLTHICRIDLKGHSPEWYSKGFGHLCAAEVARIRNSFQPLIAEGPETKI” the “soluble on expression in E. coli” value was “soluble”.
With “MHHHHHHSSGVDLGTENLYFQSMNNVEKPDNDEDESEVPSLPLGLTGAFEDTSFASLCNLVNENTLKAIKEMGFTNMTEIQHKSIRPLLEGRDLLAAAKTGSGKTLAFLIPAVELIVKLRFMPRNGTGVLILSPTRELAMQTFGVLKELMTHHVHTYGLIMGGSNRSAEAQKLGNGINIIVATPGRLLDHMQNTPGFMYKNLQCLVIDEADRILDVGFEEELKQIIKLLPTRRQTMLFSATQTRKVEDLARISLKKEPLYVG” the “soluble on expression in E. coli” value was “soluble”.
For “MHHHHHHSSGVDLGTENLYFQSMTLESMNPQVKAVEYAVRGPIVLKAGEIELELQRGIKKPFTEVIRANIGDAQAMGQQPITFLRQVMALCTYPNLLDSPSFPEDAKKRARRILQACGGNSLGSYSASQGVNCIREDVAAYITRRDGGVPADPDNIYLTTGASDGISTILKILVSGGGKSRTGVMIPIPQYPLYSAVISELDAIQVNYYLDEENCWALNVNELRRAVQEAKDHCDPKVLCIINPGNPTGQVQSRKCIEDVIHFAWEEKLFLLADEVYQDNVYSPDCRFHSFKKVLYEMGPEYSSNVELASFHSTSKGYMGECGYRGGYMEVINLHPEIKGQLVKLLSVRLCPPVSGQAAMDIVVNPPVAGEESFEQFSREKESVLGNLAKKAKLTEDLFNQVPGIHCNPLQGAMYAFPRIFIPAKAVEAAQAHQMAPDMFYCMKLLEETGICVVPGSGFGQREGTYHFRMTILPPVEKLKTVLQKVKDFHINFLEKYA”, the “soluble on expression in E. coli” value was “soluble”.
For “MHHHHHHSSGVDLGTENLYFQSMVDATRVPMDERFRTLKKKLEEGMVFTEYEQIPKKKANGIFSTAALPENAERSRIREVVPYEENRVELIPTKENNTGYINASHIKVVVGGAEWHYIATQGPLPHTCHDFWQMVWEQGVNVIAMVTAEEEGGRTKSHRYWPKLGSKHSSATYGKFKVTTKFRTDSVCYATTGLKVKHLLSGQERTVWHLQYTDWPDHGCPEDVQGFLSYLEEIQSVRRHTNSMLEGTKNRHPPIVVHCSAGVGRTGVLILSELMIYCLEHNEKVEVPMMLRLLREQRMFMIQTIAQYKFVYQVLIQFLQNSRLI”, the “soluble on expression in E. coli” value was “soluble”.
In the case of “MHHHHHHVMIMKAFISENVRGIYAFDENGNLIEKRYFTDKPEKVLDQLLKGEITKDLEELLNSLKEKGYDEFVFEHPELSRRAKELGFSATTEFPNIAGERLRSNPEEFLGENWFEEYYKVGVALTRMRIQEQSGARDKMVIQAIEALDDVDKVINLLVARLREWYSLHFPELDELLPKHPQYVAFVKTVGHRDNINEEVLRELGLSEEKIKKILEAKEKTMGAWMDQTDIEVVRQLAEEIDRLYQLRKKLEDYIDRAMDDVAPNLKALVGAKLAARLISLAGGLRELAMMPSSTIQVLGAEKALFRHLRTGAKPPKHGVIYQYPAINRSPWWQRGKIARALAGKLAIAARVDYFSGEYIAEELKKELEARIREIK”, the “soluble on expression in E. coli” value is reported as “soluble”.
In the case of “MHHKAKVIGMLKETIRSGDWKGEKHVPVIEYEREGDLVKVEVSVGKEIPHPNTPEHHIAWIELYFHPEGGQFPILVGRVEFTNHSDPLTEPRAVFFFKTSKKGKLYALSYCNIHGLWENEVQLE”, the “soluble on expression in E. coli” value is reported as “soluble”.
In the case of “MHLRTYYPTVVLSDIHLGTQHSKTEEVTHFLKSINCDRLILNGDIIDGWHLQKSGLGKWKAKHTDFFKVIMKMMENFGTQVIYVRGNHDDFLDNLAPLNFYNIRIVKDCIYESHGRRYYVTHGDIFDTVTTQMKWLAKLGDTGYTFLLWLNKVYNLRRMKQGKPYYSLSQSIKNRVKTAVSYISDFEKELVGLARAKKCDGVICGHIHHPANTFYEDIHYLNSGDWVETLSALTEDEDGNWTIRYFDSGLLKEDNHKEKQTISITIAS”, the “soluble on expression in E. coli” value is reported as “not soluble”.
For “MHNLVPAPKQTQSVLIKNATVHTVIQGVLTNTDVLIENGKISALGPQLSTNTTASTQVVDASGKHLYPGLIALDTSLGLEHHHHHH”, the “soluble on expression in E. coli” value was “not soluble”.
For “MHPFYTRAATMIGEIAAAVSFISKFLRTKGLTSERQLQTFSQSLQELLAEHYKHHWFPEKPCKGSGYRCIRINHKMDPLIGQAAQRIGLSSQELFRLLPSELTLWVDPYEVSYRIGEDGSICVLYEASPAGGSTQNSTNVQMVDSRISCKEELLLGRTSPSKNYNMMTVSG”, the “soluble on expression in E. coli” value was “soluble”.
For “MHPGIDSMSSNINCENNPFSFYGNPHKSVIIHGKEGTELLKEKGEDCKTFENSQQYFLWCCVQQQMYHYQLLSTAFASYGFEPPRIPGAFPHHIPPIFNGSMKCLRDREVFNQSGFLYVNVSPDTYQETRQEAPVEQRNQWSEKSKTTSKKSICKVLFECTNSSLLENAENRSIFSKQGSGSHVGENSKNPSEDSGQSGRLSQNATAEHNVLEKHLQEEYQMAKNTVNESFDSLKECSAASVIKGSYLLSQVVHIPEDAIEPEIPPDLQGPGGHVFLRMLSRSWRQYKRALEHNE”, the “soluble on expression in E. coli” value was “not soluble”.
For “MHPRSKLSQAQRELAVDLFEEGYGSRAVANRLGVRREQVRHLEDRFRLHGRLCLVSKRTKRQYSFDTKMEILRRHKAGELKSDLAKEYGLSSPALINHWVWQVNKGGPDALRPKPKGRPKSSARPAPVTEEDKLRRENELLKAEVAYLKKLRDLRDQRRGLEHHHHHH”, the “soluble on expression in E. coli” value was “not soluble”.
In the case of “MHQQIIKFWFEELTPQNWFENNPELDKHIASRFASVLEQAARCELFNWRDSAQGRLAEIIVLDQFSRNVYRNTPKAFAQDPLALALAQEAIRLGHDQELAPEQLSFLYMPFMHSESRLIHVEAEKLFRASGLENNYDFELKHKAIIDQFGRYPHRNAILGRESTPEELAFLQQPGS”, the “soluble on expression in E. coli” value is reported as “soluble”.
With “MHQVYVDIIVDAIIEQYQTEENFYSAYQIQAADWQAWKEGQFGLDNEVMQKIKNLFTDYEWMLTQKILRQTILFPEKRNLAVSEYKRLKTTIAKKWLQSDLGVVELIPNNKQEQEIAAGYIDLKVTLAYGEWGFDDIITFRLPATIQRQLEGSKVELLDWVNENLMDTYVGE” the “soluble on expression in E. coli” value was “not soluble”.
In the case of “MHRHVVTKVLPYTPDQLFELVGDVDAYPKFVPWITGMRTWNGRVDGAVSTVDAEAQVGFSFLREKFATRKRRDKDARSIDVSLLYGPFKRLNNGWRFMPEGDATRVEFVIEFAFKSALLDAMLAANVDRAAGKLIACFEARAQQLHGALEHHHHHH”, the “soluble on expression in E. coli” value is reported as “soluble”.
For “MHRTARNFAEIKPNLLFRKAKMARKSAEKYVAKKIQVPELQGEALFGLHSVLEAIRSGKRDFHSVFLKKAVENRADSDARIKEILSRIDELGIQKTLLTDDQLDRLTEFQLHNGICMDASALQFSNFEPKTVSIFVDKVLDPGNLGAIGRSAWYFGADGLGLVKGRGPKSITPAMIKSSCGALEHLPVQQFLNFNEFRDKIKAAGGELVATCDPGAAEKAGISAKSLDQWTPEKPVGIVLGDEGVGISRGILNLCDTVISISPVRKDGSNVTSLNVSVVAGILLHHISLQNRTN”, the “soluble on expression in E. coli” value was “not soluble”.
In the case of “MHVFYSEERRGNLLILREGEVKHFRVRRIEKDEEFGVIHEGKIYVCKVRREDKREISCEIVEELETKLPPKDITLYQSVTVDLKTMDTIVRQATELGVLTFVPIISERSFQKEEAILKKTEKWKRIVIEAMKQSRRPIPMEIKKPVRLSDLIPESEENIILDNFYEGVKPKDVNLEAKTYSVVVGPEGGFSKRESQILREKGFKSVLLEPYTLRTETAVVSIVSILMNFLEHHHHHH”, the “soluble on expression in E. coli” value is reported as “soluble”.
